PMC4708090 (Biochemistry, 2015)

B1: wt BfrB (Pseudomonas aeruginosa bacterioferritin B, 24-mer) (natural protein)
chain: not shown
B2: wt Bfd (C43S mutant of P. aeruginosa bacterioferritin-associated ferredoxin) (natural protein, Pseudomonas aeruginosa)
chain: MYVCLCQGVTDNQIRDAIYEGCCSYREVREATGVGTQCGKCASLAKQVVRETLNDLQSAQPVPAFGTTAFVAA

Experiments:
SEC = target: the molecule itself; test: SEC
[1] = target: B2; test: ITC
[2] = target: B1; test: SPR
[3] = target: B1; test: ITC
[4] = target: B1; test: SPR; remark: listed apart in the source
[5] = target: B1; test: SPR; remark: listed apart in the source
E81A BfrB = E81A BfrB (Pseudomonas aeruginosa, UniProt Q9HY79 1-158, E81A); test: SPR
L68A BfrB = L68A BfrB (Pseudomonas aeruginosa, UniProt Q9HY79 1-158, L68A); test: SPR
E85A BfrB = E85A BfrB (Pseudomonas aeruginosa, UniProt Q9HY79 1-158, E85A); test: SPR
[6] = target: B1; test: SPR; remark: listed apart in the source

B1
binding result (SEC): binds
dH [1]: 1.6 ± 0.3 kcal/mol

B2
Kd [2]: 2.6 ± 0.4 µM
koff [2]: 0.069 ± 0.01 s⁻¹
kon [2]: 26000 ± 2000 M⁻¹ s⁻¹
Kd [3]: 4.2 ± 0.4 µM
stoichiometry N [4]: 12.7 Bfd per 24-mer BfrB
Kd [5]: 3.3 ± 0.5 µM
Kd (E81A BfrB): 258 ± 21.5 µM
Kd (L68A BfrB): 298 ± 20.5 µM
Kd (E85A BfrB): 590 ± 2 µM

B3: K40A Bfd (natural protein, Pseudomonas aeruginosa)
chain: MYVCLCQGVTDNQIRDAIYEGCCSYREVREATGVGTQCGACASLAKQVVRETLNDLQSAQPVPAFGTTAFVAA
Kd [6]: 7.7 ± 0.5 µM

B4: Y2F Bfd (natural protein, Pseudomonas aeruginosa)
chain: MFVCLCQGVTDNQIRDAIYEGCCSYREVREATGVGTQCGKCASLAKQVVRETLNDLQSAQPVPAFGTTAFVAA
Kd [6]: 10.7 ± 0.2 µM

B5: L5A Bfd (natural protein, Pseudomonas aeruginosa)
chain: MYVCACQGVTDNQIRDAIYEGCCSYREVREATGVGTQCGKCASLAKQVVRETLNDLQSAQPVPAFGTTAFVAA
Kd [6]: 82 ± 2.5 µM
